Target: Prp8^885–2413 tagged with a calmodulin-binding peptide (CBP) at the N terminus (yeast, UniProt P33334 885-2413)
Test: pull-down; calmodulin pull-down; CBP-tagged Prp8^885-2413 or its complexes as bait (0.5 μM), prey 1.0 μM; overnight at 4°C in 20 mM HEPES K+ pH 7.8, 300 mM KCl, 1 mM Mg(OAc)2, 2 mM CaCl2, 10 mM β-mercaptoethanol; calmodulin resin 3 hr, eluted with EGTA; SDS-PAGE
Conditions: both partners purified

Prp8^885–2413 tagged with a calmodulin-binding peptide (CBP) at the N terminus, sequence (P33334 885-2413): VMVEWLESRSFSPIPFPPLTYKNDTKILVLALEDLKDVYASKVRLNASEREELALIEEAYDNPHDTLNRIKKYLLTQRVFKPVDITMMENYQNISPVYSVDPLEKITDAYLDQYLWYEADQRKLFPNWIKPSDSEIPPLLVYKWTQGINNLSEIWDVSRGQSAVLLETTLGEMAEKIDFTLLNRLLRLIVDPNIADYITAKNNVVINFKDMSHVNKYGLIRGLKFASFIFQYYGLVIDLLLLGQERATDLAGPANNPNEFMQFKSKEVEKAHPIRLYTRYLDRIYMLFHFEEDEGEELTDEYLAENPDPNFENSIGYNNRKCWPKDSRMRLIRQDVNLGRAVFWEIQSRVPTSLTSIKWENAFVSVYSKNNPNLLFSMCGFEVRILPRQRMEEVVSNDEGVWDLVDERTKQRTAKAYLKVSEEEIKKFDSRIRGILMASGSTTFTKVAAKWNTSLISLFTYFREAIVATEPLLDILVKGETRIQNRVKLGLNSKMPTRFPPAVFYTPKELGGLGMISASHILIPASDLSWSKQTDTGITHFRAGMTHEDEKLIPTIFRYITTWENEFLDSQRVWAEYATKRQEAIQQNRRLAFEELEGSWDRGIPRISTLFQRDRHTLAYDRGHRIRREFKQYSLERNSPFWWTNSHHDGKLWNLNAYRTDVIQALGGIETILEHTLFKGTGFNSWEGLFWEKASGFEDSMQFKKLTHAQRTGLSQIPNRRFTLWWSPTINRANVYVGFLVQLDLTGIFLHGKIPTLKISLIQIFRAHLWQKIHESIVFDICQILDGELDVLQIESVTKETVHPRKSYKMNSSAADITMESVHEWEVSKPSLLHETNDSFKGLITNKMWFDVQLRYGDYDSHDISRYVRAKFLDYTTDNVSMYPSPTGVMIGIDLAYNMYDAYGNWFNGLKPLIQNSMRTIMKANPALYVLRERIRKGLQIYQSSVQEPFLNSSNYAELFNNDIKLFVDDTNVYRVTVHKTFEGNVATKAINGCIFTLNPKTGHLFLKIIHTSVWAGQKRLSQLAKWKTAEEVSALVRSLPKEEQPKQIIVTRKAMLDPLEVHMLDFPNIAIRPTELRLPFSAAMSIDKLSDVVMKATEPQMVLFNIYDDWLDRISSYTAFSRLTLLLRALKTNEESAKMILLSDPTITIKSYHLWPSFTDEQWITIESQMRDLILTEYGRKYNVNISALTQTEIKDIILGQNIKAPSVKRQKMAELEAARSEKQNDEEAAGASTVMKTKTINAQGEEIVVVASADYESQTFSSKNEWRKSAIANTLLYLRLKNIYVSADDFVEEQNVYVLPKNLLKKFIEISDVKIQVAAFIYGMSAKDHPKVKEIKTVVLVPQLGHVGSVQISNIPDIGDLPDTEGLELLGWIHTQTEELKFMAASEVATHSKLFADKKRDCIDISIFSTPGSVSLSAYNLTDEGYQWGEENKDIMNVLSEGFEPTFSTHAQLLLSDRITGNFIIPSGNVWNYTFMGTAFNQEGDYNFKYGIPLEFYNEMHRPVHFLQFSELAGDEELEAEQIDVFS

Row | Binder | binding result
1 | Aar2 (natural protein, yeast, UniProt P32357 1-355, looked up, Aar2, U5 snRNP assembly factor, yeast; also called U5 snRNP assembly factor Aar2) MNTVPFTSAPIEVTIGIDQYSFNVKENQPFHGIKDIPIGHVHVIHFQHADNSSMRYGYWFDCRMGNFYIQYDPKDGLYKMMEERDGAKFENIVHNFKERQMMVSYPKIDEDDTWYNLTEFVQMDKIRKIVRKDENQFSYVDSSMTTVQENELLKSSLQKAGSKMEAKNEDDPAHSLNYTVINFKSREAIRPGHEMEDFLDKSYYLNTVMLQGIFKNSSNYFGELQFAFLNAMFFGNYGSSLQWHAMIELICSSATVPKHMLDKLDEILYYQIKTLPEQYSDILLNERVWNICLYSSFQKNSLHNTEKIMENKYPELLGKDNEDDALIYGISDEERDDEDDEHNPTIVGGLYYQRP | binds
2 | Aar2ΔC (missing 23 C-terminal residues) (domain or fragment, yeast, UniProt P32357 1-332, looked up, Aar2, yeast, missing 23 C-terminal residues (so in the source)) MNTVPFTSAPIEVTIGIDQYSFNVKENQPFHGIKDIPIGHVHVIHFQHADNSSMRYGYWFDCRMGNFYIQYDPKDGLYKMMEERDGAKFENIVHNFKERQMMVSYPKIDEDDTWYNLTEFVQMDKIRKIVRKDENQFSYVDSSMTTVQENELLKSSLQKAGSKMEAKNEDDPAHSLNYTVINFKSREAIRPGHEMEDFLDKSYYLNTVMLQGIFKNSSNYFGELQFAFLNAMFFGNYGSSLQWHAMIELICSSATVPKHMLDKLDEILYYQIKTLPEQYSDILLNERVWNICLYSSFQKNSLHNTEKIMENKYPELLGKDNEDDALIYGISD | binds

From article PMC3677097, “Structural Basis of Brr2-Prp8 Interactions and Implications for U5 snRNP Biogenesis and the Spliceosome Active Site” (Structure(London, England:1993), 2013)
